Starred links: 1 amine or outer side, 2 acyl side, 3 side chain; linkers in the order of their positions; H or OH if unused. Positions of bridges follow the written chain, without caps; N, C: chain ends. Non-standard residues stand in square brackets, D forms with d. Primed or numbered codes have the meaning given here. PyrS(3) = (S)-1-((allyloxy)carbonyl)-3-aminopyrrolidine-3-carboxylic acid, stapling residue, C=CCOC(=O)N1CC[C@@](N[*:1])(C(=O)[*:2])C1; PyrS″ = (S)-1-((allyloxy)carbonyl)-3-aminopyrrolidine-3-carboxylic acid (stapling residue), C=CCOC(=O)N1CC[C@@](N[*:1])(C(=O)[*:2])C1; PyrS = (S)-1-((allyloxy)carbonyl)-3-aminopyrrolidine-3-carboxylic acid, C=CCOC(=O)N1CC[C@@](N[*:1])(C(=O)[*:2])C1; Phe(4-CONH2) = NC(=O)c1ccc(C[C@H](N)C(=O)O)cc1; Ala(cPent) = N[C@@H](CC1CCCC1)C(=O)O; 2Pal = N[C@@H](Cc1ccccn1)C(=O)O; 3Pal = N[C@@H](Cc1cccnc1)C(=O)O; 4Pal = N[C@@H](Cc1ccncc1)C(=O)O; R8 = C=CCCCCCC[C@@](C)(N)C(=O)O
T1: full-length beta-Catenin (Uniprot ID P35222) (Homo sapiens (Human), UniProt P35222 2-781)
T1 construct: Used full-length in both the FP and the AlphaScreen assay; also called B-Catenin; bCat
T1 sequence: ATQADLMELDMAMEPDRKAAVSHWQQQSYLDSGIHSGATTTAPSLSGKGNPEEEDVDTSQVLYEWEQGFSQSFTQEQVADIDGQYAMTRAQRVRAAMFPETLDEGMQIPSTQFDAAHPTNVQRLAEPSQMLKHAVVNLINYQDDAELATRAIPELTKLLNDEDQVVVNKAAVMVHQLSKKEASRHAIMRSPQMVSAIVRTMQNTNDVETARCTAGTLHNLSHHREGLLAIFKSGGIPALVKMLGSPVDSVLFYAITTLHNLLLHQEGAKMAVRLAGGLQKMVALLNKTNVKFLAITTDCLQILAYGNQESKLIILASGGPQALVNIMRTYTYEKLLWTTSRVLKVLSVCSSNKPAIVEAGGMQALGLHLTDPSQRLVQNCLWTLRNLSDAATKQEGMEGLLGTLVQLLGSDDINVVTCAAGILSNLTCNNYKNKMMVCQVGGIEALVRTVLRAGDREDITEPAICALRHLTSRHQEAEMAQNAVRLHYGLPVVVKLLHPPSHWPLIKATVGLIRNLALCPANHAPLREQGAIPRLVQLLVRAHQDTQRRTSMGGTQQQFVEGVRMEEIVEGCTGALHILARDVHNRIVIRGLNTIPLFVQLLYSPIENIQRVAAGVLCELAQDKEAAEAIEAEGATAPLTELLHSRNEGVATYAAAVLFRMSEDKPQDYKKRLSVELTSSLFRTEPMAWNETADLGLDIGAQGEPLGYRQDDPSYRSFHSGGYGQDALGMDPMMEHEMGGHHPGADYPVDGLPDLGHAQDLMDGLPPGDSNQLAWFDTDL

T2: full-length beta-Catenin (Uniprot ID P35222) (Homo sapiens (Human), UniProt P35222 2-781)
T2 construct: also called B-Catenin; bCat
T2 sequence: T1 sequence

B1: I-90 (peptide)
peptide: Ac-FDA[R8]DDAAFV[PyrS″][Phe(4-CONH2)]WQ-NH2
modifications: staple 4-11
notes: Stapled peptide; also called Ac-Phe-Asp-Ala-R8-Asp-Asp-Ala-Ala-Phe-Val-PyrS-4CBMF-Trp-Gln-NH2
B2: I-89 (peptide)
peptide: Ac-FDA[R8]DDAAFV[PyrS″][Phe(4-CONH2)]WQ-NH2
modifications: staple 4-11; not fully specified; printed as Ac-Phe-Asp-Ala-R8-Asp-Asp-Ala-Ala-Phe-Val-PyrS-4CBMF-Trp-Gln-NH2
notes: as for B1
B3: I-86 (peptide)
peptide: Ac-FDA[R8]DDAA[2Pal]V[PyrS]FWQ-NH2
modifications: staple 4-11
notes: Stapled peptide; also called Ac-Phe-Asp-Ala-R8-Asp-Asp-Ala-Ala-2PyrA-Val-PyrS-Phe-Trp-Gln-NH2
B4: I-87 (peptide)
peptide: Ac-FDA[R8]DDAA[3Pal]V[PyrS″]FWQ-NH2
modifications: staple 4-11; not fully specified; printed as Ac-Phe-Asp-Ala-R8-Asp-Asp-Ala-Ala-3PyrA-Val-PyrS-Phe-Trp-Gln-NH2
notes: Stapled peptide; also called Ac-Phe-Asp-Ala-R8-Asp-Asp-Ala-Ala-3PyrA-Val-PyrS-Phe-Trp-Gln-NH2
B5: I-85 (peptide)
peptide: Ac-FDA[R8]DDAAFV[PyrS][4Pal]WQ-NH2
modifications: staple 4-11; not fully specified; printed as Ac-Phe-Asp-Ala-R8-Asp-Asp-Ala-Ala-Phe-Val-PyrS-4PyrA-Trp-Gln-NH2
notes: Stapled peptide; also called Ac-Phe-Asp-Ala-R8-Asp-Asp-Ala-Ala-Phe-Val-PyrS-4PyrA-Trp-Gln-NH2
B6: I-88 (peptide)
peptide: Ac-FDA[R8]DDAA[3Pal]V[PyrS″]FWQ-NH2
modifications: staple 4-11; not fully specified; printed as Ac-Phe-Asp-Ala-R8-Asp-Asp-Ala-Ala-3PyrA-Val-PyrS-Phe-Trp-Gln-NH2
notes: as for B4
B7: I-95 (peptide)
peptide: Ac-FDA[R8]DDAA[Ala(cPent)]V[PyrS″]FWQ-NH2
modifications: staple 4-11
notes: Stapled peptide composition; same description as I-96, separate earlier-eluting HPLC peak (staple isomer)
B8: I-92 (peptide)
peptide: Ac-FDA[R8]DDAA[Phe(4-CONH2)]V[PyrS″]FWQ-NH2
modifications: staple 4-11
notes: Stapled peptide composition; same description as I-91, separate later-eluting HPLC peak (staple isomer)
B9: I-91 (peptide)
peptide: Ac-FDA[R8]DDAA[Phe(4-CONH2)]V[PyrS″]FWQ-NH2
modifications: staple 4-11
notes: Stapled peptide composition; same description as I-92, separate earlier-eluting HPLC peak (staple isomer)
B10: I-100 (peptide)
peptide: Ac-FDA[R8]DFAAFV[PyrS″]FWQ-NH2
modifications: staple 4-11
notes: Stapled peptide composition; same description as I-99, separate later-eluting HPLC peak (staple isomer)
B11: I-99 (peptide)
peptide: Ac-FDA[R8]DFAAFV[PyrS]FWQ-NH2
modifications: staple 4-11; not fully specified; printed as Ac-Phe-Asp-Ala-R8-Asp-Phe-Ala-Ala-Phe-Val-PyrS-Phe-Trp-Gln-NH2
notes: Stapled peptide composition; same description as I-100, separate earlier-eluting HPLC peak (staple isomer)
B12: I-122 (peptide)
peptide: Ac-FDA[R8]DDAAFV[PyrS″]DWQ-NH2
modifications: staple 4-11; not fully specified; printed as Ac-Phe-Asp-Ala-R8-Asp-Asp-Ala-Ala-Phe-Val-PyrS-Asp-Trp-Gln-NH2
notes: Stapled peptide composition
B13: I-94 (peptide)
peptide: Ac-FDA[R8]DDAAFV[PyrS][Ala(cPent)]WQ-NH2
modifications: staple 4-11
notes: Stapled peptide composition; same description as I-93, separate later-eluting HPLC peak (staple isomer)
B14: I-93 (peptide)
peptide: Ac-FDA[R8]DDAAFV[PyrS″][Ala(cPent)]WQ-NH2
modifications: staple 4-11
notes: Stapled peptide composition; same description as I-94, separate earlier-eluting HPLC peak (staple isomer)
B15: I-96 (peptide)
peptide: Ac-FDA[R8]DDAA[Ala(cPent)]V[PyrS]FWQ-NH2
modifications: staple 4-11
notes: Stapled peptide composition; same description as I-95, separate later-eluting HPLC peak (staple isomer)

These binders were tested against T1, full-length beta-Catenin (Uniprot ID …) (assay: AlphaScreen competition; full-length beta-catenin, biotin-TCF4(10-53) probe).
Procedure: (§1) Equal volume of the titrated peptide was added to the plate and incubated for 15 minutes at 20° C. Then 4 uL of donor and 4 uL acceptor beads at 10 ug/mL were added to the plate, for a 16 uL reaction pool and protected from light for 60 minutes at 20° C. prior to read. Reads were performed on a CLARIOstar plate reader (BMG Labtech) in duplicate, and data were fitted to a 1:1 binding model with hill slope using an in-house script. All provided concentrations are final concentrations.

Compared with B1, B2 is lower in EC50: ≥ 10 µM for the first, 5.64 µM for the second.

B3 and B4 cannot be ordered by EC50: ≥ 10 µM for the first, ≥ 10 µM for the second.

B5 and B6 cannot be ordered by EC50: ≥ 10 µM for the first, ≥ 10 µM for the second.

These binders were tested against T2, full-length beta-Catenin (Uniprot ID …) (assay: Alphascreen competition; biotin-TCF4(10-53) probe with full-length beta-catenin).
Procedure: as §1

B7 and B8 are within 1.5-fold of each other in EC50: 8.66 µM for the first, 9.15 µM for the second.

B9 and Ac-FDA[R8]DDAAFV[PyrS(3)]DWQ-NH2 (staple 4-11, Stapled peptide composition) [I-121] are within 1.5-fold of each other in EC50: 4.72 µM for the first, 4.46 µM for the second.

Compared with B10, B11 is higher in EC50: 9.23 µM for the first, ≥ 10 µM for the second. The first is the more potent here.

Going from B12 to B13, the EC50 falls from ≥ 10 µM to 7.01 µM. The second is the more potent here.

B14 and B15 cannot be ordered by EC50: ≥ 10 µM for the first, ≥ 10 µM for the second.
